Results reported in the RNAGym collection of RNA variant scans (doi:10.1073/pnas.2313332121).
Fewer inactive variants are shown than the library holds.

B1: TPR 5TU (parent)
chain: GGAUCUUCUCGAUCUAACAAAAAAGACAAAUCUGCCACAAAGCUUGAGAGCAUCUUCGGAUGCAGAGGCGGCAGCCUUCGGUGGCGCGAUAGCGCCAACGUUCUCAACUAUGACACGCAAAACGCGUGCUCCGUUGAAUGGAGUUUAUCAUG

Variants of: B1
Assay: polymerase ribozyme fitness, log enrichment relative to wild type (log ratio); higher = more active; in vitro selection for triplet polymerase activity
Outline: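 Fitness measures genotype enrichment against wild-type enrichment on a logarithmic scale, with inverse-variance-weighted averaging of replicates. The logarithm is base 2, and genotypes were kept only with ≥10 input reads and ≥1 read per output in Illumina sequencing. The sequenced libraries came from one triplicate in vitro selection round, including frozen incubation at −7 °C, of PCR-built, transcribed mutant libraries of each subunit of a heterodimeric triplet polymerase ribozyme.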

A23U U56A A73U G86A C93G C131G U139C and U44A C76A A91G cannot be ordered by “polymerase ribozyme fitness (log ratio)” value: no more than -4.2 for the first, no more than -4.2 for the second.

Compared with C85U C95G A119U, A22C C85A A137G is lower in “polymerase ribozyme fitness (log ratio)” value: -1.89 for the first, -2.49 for the second.

Going from A73U A91U A106C G136C to U6G A19G C38G C96A A106U, the “polymerase ribozyme fitness (log ratio)” value rises from no more than -4.2 to -3.84.

U33A C69G C87G and C8G C10G C14G A41C G83U A119U G141C cannot be ordered by “polymerase ribozyme fitness (log ratio)” value: no more than -4.2 for the first, no more than -4.2 for the second.

C5G A23C G68C G81C G83C U101G C118U G141U and A24G G92A A121U A147G cannot be ordered by “polymerase ribozyme fitness (log ratio)” value: no more than -4.2 for the first, no more than -4.2 for the second.

C36A G67C G68C A73U C87A U148C and U9C C10G C35U G94A C103A C108U A115U G140U cannot be ordered by “polymerase ribozyme fitness (log ratio)” value: no more than -4.2 for the first, no more than -4.2 for the second.

First: C35U G50U G83U C87A A115C C118G
Second: C38U U61G C85A G94C C123A
The “polymerase ribozyme fitness (log ratio)” value of the first is lower: no more than -4.2 for the first, -1.29 for the second.

First: A21C U56A
Second: C35G G74A U90A C95U
The “polymerase ribozyme fitness (log ratio)” value of the first is higher: -0.39 for the first, no more than -4.2 for the second.

First: U55A G58U C93G
Second: C54A C85U C149G G152U
The “polymerase ribozyme fitness (log ratio)” value of the first is higher: -3.78 for the first, -4.15 for the second.

Going from U15G U53A to C14G C38A A52C C57A G62A G83A A89C C96G A110C, the “polymerase ribozyme fitness (log ratio)” value falls from -0.774 to -3.85.

Compared with A12U A91U A120G U146A, U6G A120C G136C is higher in “polymerase ribozyme fitness (log ratio)” value: -4.18 for the first, -3.69 for the second.

First: G84U G117U A121G
Second: A60U C87U U135C
The “polymerase ribozyme fitness (log ratio)” value of the first is higher: -1.75 for the first, -3.65 for the second.

U44A U90G C93U G143A U151G and A12C C87A U130C cannot be ordered by “polymerase ribozyme fitness (log ratio)” value: no more than -4.2 for the first, no more than -4.2 for the second.

First: C43A U61A U127C C132U U145G
Second: A12U C36U G84U
The “polymerase ribozyme fitness (log ratio)” value of the first is lower: no more than -4.2 for the first, -4.11 for the second.

Compared with A26C C54G A121G, U102A A113C is lower in “polymerase ribozyme fitness (log ratio)” value: -2.79 for the first, -3.86 for the second.

Compared with A21G G83C U90C U146A A150C, A98U C105A A119G A121C is higher in “polymerase ribozyme fitness (log ratio)” value: no more than -4.2 for the first, -0.491 for the second.

Going from U9C A52G U53A C114G U145G to C35U A52G, the “polymerase ribozyme fitness (log ratio)” value rises from no more than -4.2 to -0.53.

First: C14A U82A G92A
Second: C69G G94A
The “polymerase ribozyme fitness (log ratio)” value of the first is lower: no more than -4.2 for the first, -1.15 for the second.

C36A C93G C125A and A20U G42U U90G C96A G117A A137U cannot be ordered by “polymerase ribozyme fitness (log ratio)” value: no more than -4.2 for the first, no more than -4.2 for the second.

U31A A49C C93U C118A A121U and C72A A73U C85G A138C U148C cannot be ordered by “polymerase ribozyme fitness (log ratio)” value: no more than -4.2 for the first, no more than -4.2 for the second.

Going from A26U A97U A119G to A22U G46U C69A C93A C131A U148A, the “polymerase ribozyme fitness (log ratio)” value falls from -2.34 to no more than -4.2.

Going from G46A U55A C63U U111C C125A to C18G G80U C116U, the “polymerase ribozyme fitness (log ratio)” value rises from no more than -4.2 to -1.62.

Going from C14A U15A G50U A66G U101G C114U C118G G133A A137G to A47C A73U G124C, the “polymerase ribozyme fitness (log ratio)” value rises from no more than -4.2 to -3.78.

First: U9A A21U
Second: A26G A28U G42C G59C C96G C105G C116U
The “polymerase ribozyme fitness (log ratio)” value of the first is higher: -3.81 for the first, -4.04 for the second.

Compared with U55A C79U C85U, A49C A107G U151C is lower in “polymerase ribozyme fitness (log ratio)” value: -3.3 for the first, no more than -4.2 for the second.

C96G A137U and C51U C116G G140C are within 0.2 log units of each other in “polymerase ribozyme fitness (log ratio)” value: -4 for the first, -4.07 for the second.

G58U C105U U134A A137U U144A and U31C G71A G86C C118A U151G cannot be ordered by “polymerase ribozyme fitness (log ratio)” value: no more than -4.2 for the first, no more than -4.2 for the second.

Going from C51U G84C C87A C95A A122C A137U G141C to U61C G70A, the “polymerase ribozyme fitness (log ratio)” value rises from no more than -4.2 to -4.13.

G80U C108G and A22U A52U U78A C85U U127A A137C cannot be ordered by “polymerase ribozyme fitness (log ratio)” value: no more than -4.2 for the first, no more than -4.2 for the second.

Going from A16U C87U C116U to U31A A97U, the “polymerase ribozyme fitness (log ratio)” value rises from -2.25 to -0.316.

A17G A28U C32U A39U C57A C95A A110G U144C A147G A150C and G25C A26U A30U A39U U56G U77A A138U cannot be ordered by “polymerase ribozyme fitness (log ratio)” value: no more than -4.2 for the first, no more than -4.2 for the second.

Going from C93A C95A U104A G141C to U101G U134A U144C A150U, the “polymerase ribozyme fitness (log ratio)” value rises from no more than -4.2 to -4.09.

C10U C54A C69U C75U C87A and C85G A107U cannot be ordered by “polymerase ribozyme fitness (log ratio)” value: no more than -4.2 for the first, no more than -4.2 for the second.

Going from G25A C76U C87A A110G A120G to A40U U61A A122G, the “polymerase ribozyme fitness (log ratio)” value rises from no more than -4.2 to -1.1.

C35G U53G A64C C79G U109A A115U G128C A142G and C14G C36U U55G G68U C93G U134A cannot be ordered by “polymerase ribozyme fitness (log ratio)” value: no more than -4.2 for the first, no more than -4.2 for the second.

Going from U53A U148C to C10G A37U U55A G94A C95G G140C, the “polymerase ribozyme fitness (log ratio)” value falls from -3.4 to no more than -4.2.

U31G C54A G88A G126A G141A and C36U G81A C95G C96A C99U C149G cannot be ordered by “polymerase ribozyme fitness (log ratio)” value: no more than -4.2 for the first, no more than -4.2 for the second.

Compared with U13C G58A, C85G C131G G152U is lower in “polymerase ribozyme fitness (log ratio)” value: 0.452 for the first, no more than -4.2 for the second.

A73G C95G C96U G124U C149U G152A and U7C G48U G84A G117C cannot be ordered by “polymerase ribozyme fitness (log ratio)” value: no more than -4.2 for the first, no more than -4.2 for the second.

First: A49C C75G C87A
Second: G25C A28G G80C G83A
The “polymerase ribozyme fitness (log ratio)” value of the first is lower: no more than -4.2 for the first, -4.19 for the second.

Going from G48C C118U to U53G G92C C93A, the “polymerase ribozyme fitness (log ratio)” value falls from -0.625 to no more than -4.2.

A20C A113U U127A and C76A G88C cannot be ordered by “polymerase ribozyme fitness (log ratio)” value: no more than -4.2 for the first, no more than -4.2 for the second.
